Assay results reported in patent US20030096349, “N4 virion single-stranded DNA dependent RNA polymerase” (The University of Chicago, published 2003).

Assays:
[1] = molecular target: T1, mini-vRNAP, non-His-tagged (Bacteriophage N4, UniProt Q859P9 SEQ:2-1107); test: pulldown; DNA-affinity column; lower yield than SEQ 16; conditions: label: biotin; hairpin
T1 chain: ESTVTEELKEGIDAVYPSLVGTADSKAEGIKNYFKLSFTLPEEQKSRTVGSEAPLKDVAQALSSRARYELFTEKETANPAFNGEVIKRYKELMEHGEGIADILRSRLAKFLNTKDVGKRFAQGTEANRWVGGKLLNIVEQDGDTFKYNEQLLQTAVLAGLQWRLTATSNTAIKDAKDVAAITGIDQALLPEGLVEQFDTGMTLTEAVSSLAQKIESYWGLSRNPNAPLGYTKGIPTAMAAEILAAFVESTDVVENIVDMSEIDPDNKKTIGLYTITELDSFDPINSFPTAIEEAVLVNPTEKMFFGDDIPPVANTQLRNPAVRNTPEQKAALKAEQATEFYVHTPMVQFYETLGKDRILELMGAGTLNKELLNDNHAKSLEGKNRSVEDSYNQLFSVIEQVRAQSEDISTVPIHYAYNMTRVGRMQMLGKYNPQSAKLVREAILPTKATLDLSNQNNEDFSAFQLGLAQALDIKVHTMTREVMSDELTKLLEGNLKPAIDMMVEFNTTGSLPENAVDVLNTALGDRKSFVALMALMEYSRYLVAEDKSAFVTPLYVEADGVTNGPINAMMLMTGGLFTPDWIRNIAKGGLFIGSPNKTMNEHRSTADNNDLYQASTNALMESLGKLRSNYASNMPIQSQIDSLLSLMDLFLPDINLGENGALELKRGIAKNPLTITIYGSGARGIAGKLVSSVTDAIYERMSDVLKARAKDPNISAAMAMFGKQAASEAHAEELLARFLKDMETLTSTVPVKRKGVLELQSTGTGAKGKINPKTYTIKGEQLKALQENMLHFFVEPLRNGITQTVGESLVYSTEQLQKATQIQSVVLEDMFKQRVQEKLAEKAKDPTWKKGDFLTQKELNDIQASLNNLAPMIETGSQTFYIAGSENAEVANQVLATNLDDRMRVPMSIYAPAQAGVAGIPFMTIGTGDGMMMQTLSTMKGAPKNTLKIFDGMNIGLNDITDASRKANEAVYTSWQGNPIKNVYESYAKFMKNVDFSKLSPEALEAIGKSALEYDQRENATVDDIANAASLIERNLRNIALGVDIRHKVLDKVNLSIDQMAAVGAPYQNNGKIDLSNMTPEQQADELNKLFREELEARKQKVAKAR
Method: (§1) This property was used for purification of non-his tagged mini-vRNAP (SEQ ID NO:4) on a DNA-affinity column. The column was prepared by adsorbing a 5′ biotinylated N4 promoter-containing DNA oligonucleotide onto the matrix of a 1 ml HiTrap Streptavidin column (Pharmacia/Amersham Cat.#17-5112-01) according to the manufacturer's instructions. A debris-free sonicate of bacterial cells expressing mini-vRNAP was passed through the column. […] Nucleases in the extract are inhibited by addition of 2 mM EDTA. After washing the column, mini-vRNAP was eluted with warm (25° C.) water; the elution temperature was raised from 4° C. to 25° C. to increase mini-vRNAP recovery. For complete elution, the temperature can be raised up to 43° C. without significant change in the quality of the preparation. Elution under these conditions occurs due to the removal of metal ions and consequent melting of the promoter hairpin and dissociation of mini-vRNAP. Different DNA oligonucleotides containing variants of the P2 promoter (SEQ ID NOS:16-19), were used in DNA-affinity columns and tested in mini-vRNAP affinity purification. The best yield was achieved using the DNA oligonucleotide of SEQ ID NO:16. […]

[2] = molecular target: T1, mini-vRNAP, non-His-tagged; test: pulldown; DNA-affinity column; elutes at lower temperature than SEQ 16; conditions: label: biotin
Method: as §1

[3] = molecular target: T1, mini-vRNAP, non-His-tagged; test: pulldown; DNA-affinity column, pH 5-9, 50 mM-2 M NaCl, 2 mM EDTA in extract; best yield; conditions: label: biotin; hairpin
Method: as §1

mini-vRNAP Y678F = molecular target: T2, mini-vRNAP Y678F (Bacteriophage N4, UniProt Q859P9 SEQ:38-1143); test: UV crosslinking as well as wild type enzyme; conditions: tags: N-terminal His6; label: 32P; hairpin
T2 chain: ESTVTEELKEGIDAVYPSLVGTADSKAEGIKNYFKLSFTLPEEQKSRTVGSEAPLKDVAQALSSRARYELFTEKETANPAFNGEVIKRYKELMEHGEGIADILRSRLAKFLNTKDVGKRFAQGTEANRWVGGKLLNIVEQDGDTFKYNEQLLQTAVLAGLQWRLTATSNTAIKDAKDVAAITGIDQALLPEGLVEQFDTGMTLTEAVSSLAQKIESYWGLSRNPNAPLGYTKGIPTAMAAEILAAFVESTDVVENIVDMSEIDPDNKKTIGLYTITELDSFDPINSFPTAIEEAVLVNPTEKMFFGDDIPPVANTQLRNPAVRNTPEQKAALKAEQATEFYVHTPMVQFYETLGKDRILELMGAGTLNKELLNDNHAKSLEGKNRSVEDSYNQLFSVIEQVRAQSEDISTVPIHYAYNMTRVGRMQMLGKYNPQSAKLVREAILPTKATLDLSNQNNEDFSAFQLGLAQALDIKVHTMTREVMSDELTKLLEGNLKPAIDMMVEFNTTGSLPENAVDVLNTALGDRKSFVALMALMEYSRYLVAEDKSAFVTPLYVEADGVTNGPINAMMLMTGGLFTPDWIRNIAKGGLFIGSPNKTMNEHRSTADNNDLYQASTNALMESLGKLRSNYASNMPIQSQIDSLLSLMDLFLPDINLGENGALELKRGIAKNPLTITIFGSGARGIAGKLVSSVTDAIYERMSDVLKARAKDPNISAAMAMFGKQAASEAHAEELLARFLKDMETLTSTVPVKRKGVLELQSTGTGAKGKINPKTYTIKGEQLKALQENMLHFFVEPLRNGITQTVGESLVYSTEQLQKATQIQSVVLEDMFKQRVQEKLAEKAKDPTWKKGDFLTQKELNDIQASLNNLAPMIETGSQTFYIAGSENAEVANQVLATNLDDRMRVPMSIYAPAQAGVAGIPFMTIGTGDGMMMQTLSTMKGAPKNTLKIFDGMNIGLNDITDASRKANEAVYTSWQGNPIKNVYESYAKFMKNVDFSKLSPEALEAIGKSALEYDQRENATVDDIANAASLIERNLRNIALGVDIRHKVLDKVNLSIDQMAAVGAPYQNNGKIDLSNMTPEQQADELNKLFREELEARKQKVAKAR

[4] = molecular target: T3, mini-vRNAP (N4 virion RNA polymerase central domain) (Bacteriophage N4, UniProt Q859P9 SEQ:38-1143); test: filter; range given for two or one remaining loop-closing bp; conditions: tags: N-terminal His6 (pBAD B), TALON and MonoQ, hairpin
T3 chain: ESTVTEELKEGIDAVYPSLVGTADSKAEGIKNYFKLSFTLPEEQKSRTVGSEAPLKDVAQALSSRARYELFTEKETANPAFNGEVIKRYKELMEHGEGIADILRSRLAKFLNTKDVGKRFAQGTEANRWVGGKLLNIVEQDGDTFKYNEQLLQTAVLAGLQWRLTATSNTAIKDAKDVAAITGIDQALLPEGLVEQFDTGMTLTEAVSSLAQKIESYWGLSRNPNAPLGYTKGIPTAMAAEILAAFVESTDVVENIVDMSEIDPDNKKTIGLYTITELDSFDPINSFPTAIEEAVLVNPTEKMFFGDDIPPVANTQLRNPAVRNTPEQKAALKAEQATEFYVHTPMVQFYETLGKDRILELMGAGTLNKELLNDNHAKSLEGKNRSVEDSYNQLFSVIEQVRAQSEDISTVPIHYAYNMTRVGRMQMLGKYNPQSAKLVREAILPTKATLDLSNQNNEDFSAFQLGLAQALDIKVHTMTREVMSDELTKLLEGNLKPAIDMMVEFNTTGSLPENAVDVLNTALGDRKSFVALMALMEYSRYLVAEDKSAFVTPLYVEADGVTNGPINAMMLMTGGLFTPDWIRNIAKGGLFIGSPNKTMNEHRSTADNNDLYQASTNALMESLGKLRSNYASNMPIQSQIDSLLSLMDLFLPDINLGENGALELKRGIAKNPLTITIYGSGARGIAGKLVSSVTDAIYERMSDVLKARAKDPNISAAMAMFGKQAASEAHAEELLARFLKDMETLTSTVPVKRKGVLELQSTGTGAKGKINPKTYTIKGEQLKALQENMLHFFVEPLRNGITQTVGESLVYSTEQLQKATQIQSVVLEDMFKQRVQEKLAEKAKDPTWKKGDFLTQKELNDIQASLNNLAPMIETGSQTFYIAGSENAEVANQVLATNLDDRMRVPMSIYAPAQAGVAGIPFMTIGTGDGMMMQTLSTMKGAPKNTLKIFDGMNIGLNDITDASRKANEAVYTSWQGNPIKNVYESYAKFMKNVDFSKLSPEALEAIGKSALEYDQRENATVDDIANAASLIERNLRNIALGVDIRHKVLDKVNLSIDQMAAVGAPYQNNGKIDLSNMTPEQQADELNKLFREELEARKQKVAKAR
Method: (§2) The effect of changes in the stem length of the hairpin on the ability of mini-vRNAP to bind P2 promoter DNA was analyzed. […] The stem can be shortened by two base pairs without change in the binding affinity. […] No binding is observed if one more nucleotide is removed and the loop cannot form.

[5] = molecular target: T3, mini-vRNAP (N4 virion RNA polymerase …); test: filter; stem lengthened by two bp, affinity unchanged; conditions: tags: N-terminal His6 (pBAD B); TALON and MonoQ; hairpin, 7 bp stem
[6] = molecular target: T3, mini-vRNAP (N4 virion RNA polymerase …); test: filter; wild type affinity; crosslinks; conditions: tags: N-terminal His6 (pBAD B); TALON and MonoQ; label: 32P; hairpin
Source text: To study the sequence determinants of promoter binding, 20 base-long promoter oligonucleotides, containing the wild type vRNAP promoter P2 sequence and substituted at every position with a single 5-Iodo-dU, were used. Whenever substitutions were made in the stem, the corresponding pairing base was changed to A. These oligonucleotides were ³²P end-labeled and used to determine the enzyme's affinity for promoter DNAs by a filter binding assay and the ability to crosslink to mini-vRNAP upon UV irradiation at 320 nm.

[7] = molecular target: T3, mini-vRNAP (N4 virion RNA polymerase …); test: filter; no binding when loop cannot form; conditions: tags: N-terminal His6 (pBAD B), TALON and MonoQ
Method: as §2

[8] = molecular target: T3, mini-vRNAP (N4 virion RNA polymerase …); test: filter; stem shortened by two bp, affinity unchanged; conditions: tags: N-terminal His6 (pBAD B); TALON and MonoQ; hairpin, 3 bp stem
Method: as §2

[9] = molecular target: T3, mini-vRNAP (N4 virion RNA polymerase …); test: filter; two orders of magnitude reduction; conditions: tags: N-terminal His6 (pBAD B); TALON and MonoQ; hairpin, 8 bp stem

B1: P2 affinity oligo SEQ 17 (ssDNA)
DNA: GGCCATCCATTACTTCATCCAAAAGAAGCGGAGCTTC
modifications: 5' biotin
- binding result [1]: binds

B2: P2 affinity oligo SEQ 20 (shortened stem) (ssDNA)
DNA: GGCATTACTTCATCCAAAAGAAGCGGAGC
modifications: 5' biotin
- binding result [2]: binds

B3: P2 affinity oligo SEQ 16 (ssDNA)
DNA: GGCATTACTTCATCCAAAAGAAGCGGAGCTTC
modifications: 5' biotin
- binding result [3]: binds

B4: P2 affinity oligo SEQ 19 (loop/stem variant) (ssDNA)
DNA: GGCATTACTTCATCCAAAAGAAGCTGAGCTTC
modifications: 5' biotin
- binding result [2]: binds

B5: P2 20-mer 5-iodo-dU at -11 (ssDNA)
DNA: TCCAAAAGAAGCGGAGCTTC
modifications: 5-iodo-dU at -11 (loop centre)
- binding result (mini-vRNAP Y678F): binds

B6: P2 stem shortened to 2 bp (ssDNA)
DNA: TCCAAAAGAAGCGGAGC
- Kd ([4]; 2 bp stem): 4.47 nM

B7: P2 stem lengthened to 7 bp (ssDNA)
DNA: TCCAAAAGAAGCGGAGCTTCTT
modifications: [none]
- Kd [5]: ~1 nM

B8: P2 20-mer 5-iodo-dU at +1 (ssDNA)
DNA: TCCAAAAGAAGCGGAGCTTC
modifications: 5-iodo-dU at +1
- binding result [6]: binds

B9: P2 affinity oligo SEQ 18 (ssDNA)
DNA: GGATCCAAAAGAAGCGGAGCTTC
modifications: 5' biotin
- binding result [1]: binds

B10: P2 20-mer 5-iodo-dU at +2 (ssDNA)
DNA: TCCAAAAGAAGCGGAGCTTC
modifications: 5-iodo-dU at +2
- binding result [6]: binds

B11: P2 without stem (ssDNA)
DNA: TCCAAAAGAAGCGGA
- binding result [7]: no binding

B12: P2 20-mer 5-iodo-dU at +3 (ssDNA)
DNA: TCCAAAAGAAGCGGAGCTTC
modifications: 5-iodo-dU at +3
- binding result (mini-vRNAP Y678F): binds
- binding result [6]: binds

B13: P2 stem shortened to 3 bp (ssDNA)
DNA: TCCAAAAGAAGCGGAGCT
- Kd [8]: ~1 nM

B14: P2 stem shortened to 1 bp (ssDNA)
DNA: TCCAAAAGAAGCGGAG
- Kd ([4]; 1 loop-closing bp): 4.47 nM

B15: P2 stem lengthened, base paired to -2 (ssDNA)
DNA: TCCAAAAGAAGCGGAGCTTCTTT
modifications: [none]
- binding signal [9]: ~100 fold lower affinity
